These results are taken from publication doi:10.1101/2025.11.26.690765.

The target of the assay is 4-1BB (Acro) (Homo sapiens (assumed)) (UniProt Q07011). As to the kind of experiment: SPR.

“Urelumab, variable domains in human IgG1 expression vectors (antibody)” came in with a Kd of 8 nM.

A word on the Kd: it is the free concentration of one partner at which half of the binding sites on the other are occupied at equilibrium, for simple one-to-one binding. Low values mean tighter binding, high ones weaker binding.
